Measured values taken from US20250283871A1, “COMPOSITIONS AND METHODS FOR MODULATING THE INTERACTION BETWEEN SS18-SSX FUSION ONCOPROTEIN AND NUCLEOSOMES” (Dana-Farber Cancer Institute, Inc., priority 2020, published 2025).

Columns and labels:
[1] = target: ACL6A_HUMAN Actin-like protein 6A (human) (UniProt O96019); test: MS of BAF complexes from Aska-SS cells, shControl against shSS18-SSX, Rep 1
[2] = target: SMRC1_HUMAN SWI/SNF complex subunit SMARCC1 (human) (UniProt Q92922); test: as above
[3] = target: SSX1; SSX8 (human) (UniProt Q16384); test: as above
[4] = target: SMRD1_HUMAN SWI/SNF-related matrix-associated actin-dependent regulator of chromatin subfamily D member 1 (human) (UniProt Q96GM5); test: as above
[5] = target: SMCE1_HUMAN SWI/SNF-related matrix-associated actin-dependent regulator of chromatin subfamily E member 1 (human) (UniProt Q969G3); test: as above
[6] = target: SNF5_HUMAN Isoform B of SWI/SNF-related matrix-associated actin-dependent regulator of chromatin subfamily B member 1 (human) (UniProt Q12824); test: as above
[7] = target: ARI1B_HUMAN Isoform 3 of AT-rich interactive domain-containing protein 1B (human) (UniProt Q8NFD5); test: as above
[8] = target: BCL7C_HUMAN Isoform 2 of B-cell CLL/lymphoma 7 protein family member C (human) (UniProt Q8WUZ0); test: as above
[9] = target: BCL7B (human) (UniProt Q9BQE9); test: as above
[10] = target: SSXT_HUMAN Protein SSXT (human) (UniProt Q15532); test: as above
[11] = target: TRA2B_HUMAN Transformer-2 protein homolog beta (human) (UniProt P62995); test: anti-SMARCA4 (BRG1) IP, mass spectrometry, human fibroblasts
[12] = target: UBC_HUMAN Polyubiquitin-C (human) (UniProt P0CG48); test: as above
[13] = target: UBP2L_HUMAN Isoform 5 of Ubiquitin-associated protein 2-like (human) (UniProt Q14157); test: as above
[14] = target: UCRIL HUMAN Putative cytochrome b-c1 complex subunit Rieske-like protein 1 (human) (UniProt P0C7P4); test: as above
[15] = target: ZC11A_HUMAN Zinc finger CCCH domain-containing protein 11A (human) (UniProt O75152); test: as above
[16] = target: XRN2_HUMAN 5'-3' exoribonuclease 2 (human) (UniProt Q9H0D6); test: as above
[17] = target: QCR2_HUMAN Cytochrome b-c1 complex subunit 2, mitochondrial (human) (UniProt P22695); test: as above
[18] = target: TNR6B_HUMAN Trinucleotide repeat-containing gene 6B protein (human) (UniProt Q9UPQ9); test: as above
[19] = target: VIME_HUMAN Vimentin (human) (UniProt P08670); test: as above
[20] = target: YLPM1_HUMAN Isoform 4 of YLP motif-containing protein 1 (human) (UniProt P49750); test: as above
[21] = target: ZN326_HUMAN DBIRD complex subunit ZNF326 (human) (UniProt Q5BKZ1); test: as above
[22] = target: URB2_HUMAN Unhealthy ribosome biogenesis protein 2 homolog (human) (UniProt Q14146); test: as above
[23] = target: ACL6A_HUMAN Actin-like protein 6A (human) (UniProt O96019); test: MS of BAF complexes from Aska-SS cells, shControl against shSS18-SSX, Rep 2
[24] = target: SSX1; SSX8 (human) (UniProt Q16384); test: as above
[25] = target: SMRD1_HUMAN SWI/SNF-related matrix-associated actin-dependent regulator of chromatin subfamily D member 1 (human) (UniProt Q96GM5); test: as above
[26] = target: BCL7C_HUMAN Isoform 2 of B-cell CLL/lymphoma 7 protein family member C (human) (UniProt Q8WUZ0); test: as above
[27] = target: SSXT_HUMAN Protein SSXT (human) (UniProt Q15532); test: as above

**Q.** How did the LFQ intensity ratio Aska (shControl)/Aska (shSS18-SSX), norm to SMARCA4 [1] turn out when “SMCA4_HUMAN Transcription activator BRG1 (from UniProt P51532 1-1647) (enzyme)” was run?
**A.** Its LFQ intensity ratio Aska (shControl)/Aska (shSS18-SSX), norm to SMARCA4 is 0.784.

**Q.** And the LFQ intensity ratio Aska (shControl)/Aska (shSS18-SSX), norm to SMARCA4 [2]?
**A.** Its LFQ intensity ratio Aska (shControl)/Aska (shSS18-SSX), norm to SMARCA4 is 0.506.

**Q.** What about the LFQ intensity ratio Aska (shControl)/Aska (shSS18-SSX), norm to SMARCA4 [3] of the same substance?
**A.** Its LFQ intensity ratio Aska (shControl)/Aska (shSS18-SSX), norm to SMARCA4 is 8.69.

**Q.** What about the LFQ intensity ratio Aska (shControl)/Aska (shSS18-SSX), norm to SMARCA4 [4] of the same substance?
**A.** The LFQ intensity ratio Aska (shControl)/Aska (shSS18-SSX), norm to SMARCA4 was 0.771.

**Q.** And the LFQ intensity ratio Aska (shControl)/Aska (shSS18-SSX), norm to SMARCA4 [5]?
**A.** Its LFQ intensity ratio Aska (shControl)/Aska (shSS18-SSX), norm to SMARCA4 is 0.894.

**Q.** And the LFQ intensity ratio Aska (shControl)/Aska (shSS18-SSX), norm to SMARCA4 [6]?
**A.** Its LFQ intensity ratio Aska (shControl)/Aska (shSS18-SSX), norm to SMARCA4 is 0.0221.

**Q.** And the LFQ intensity ratio Aska (shControl)/Aska (shSS18-SSX), norm to SMARCA4 [7]?
**A.** The LFQ intensity ratio Aska (shControl)/Aska (shSS18-SSX), norm to SMARCA4 was 0.721.

**Q.** What about the LFQ intensity ratio Aska (shControl)/Aska (shSS18-SSX), norm to SMARCA4 [8] of the same substance?
**A.** The LFQ intensity ratio Aska (shControl)/Aska (shSS18-SSX), norm to SMARCA4 was 1.74.

**Q.** What about the LFQ intensity ratio Aska (shControl)/Aska (shSS18-SSX), norm to SMARCA4 [9] of the same substance?
**A.** Its LFQ intensity ratio Aska (shControl)/Aska (shSS18-SSX), norm to SMARCA4 is 1.34.

**Q.** And the LFQ intensity ratio Aska (shControl)/Aska (shSS18-SSX), norm to SMARCA4 [10]?
**A.** The LFQ intensity ratio Aska (shControl)/Aska (shSS18-SSX), norm to SMARCA4 was 0.959.

**Q.** What about the NSAF [11] of the same substance?
**A.** Its NSAF is 0.00022.

**Q.** And the NSAF [12]?
**A.** Its NSAF is 9.25e-05.

**Q.** What about the NSAF [13] of the same substance?
**A.** The NSAF was 5.74e-05.

**Q.** What about the NSAF [14] of the same substance?
**A.** Its NSAF is 0.000224.

**Q.** And the NSAF [15]?
**A.** The NSAF was 0.

**Q.** And the NSAF [16]?
**A.** The NSAF was 0.

**Q.** And the NSAF [17]?
**A.** The NSAF was 0.00014.

**Q.** And the NSAF [18]?
**A.** The NSAF was 6.92e-05.

**Q.** And the NSAF [19]?
**A.** The NSAF was 0.000136.

**Q.** What about the NSAF [20] of the same substance?
**A.** The NSAF was 0.000266.

**Q.** What about the NSAF [21] of the same substance?
**A.** The NSAF was 0.

**Q.** What about the NSAF [22] of the same substance?
**A.** The NSAF was 0.

**Q.** And the LFQ intensity ratio Aska (shControl)/Aska (shSS18-SSX), norm to SMARCA4 [23]?
**A.** Its LFQ intensity ratio Aska (shControl)/Aska (shSS18-SSX), norm to SMARCA4 is 1.1.

**Q.** What about the LFQ intensity ratio Aska (shControl)/Aska (shSS18-SSX), norm to SMARCA4 [24] of the same substance?
**A.** The LFQ intensity ratio Aska (shControl)/Aska (shSS18-SSX), norm to SMARCA4 was 66.8.

**Q.** What about the LFQ intensity ratio Aska (shControl)/Aska (shSS18-SSX), norm to SMARCA4 [25] of the same substance?
**A.** The LFQ intensity ratio Aska (shControl)/Aska (shSS18-SSX), norm to SMARCA4 was 0.95.

**Q.** What about the LFQ intensity ratio Aska (shControl)/Aska (shSS18-SSX), norm to SMARCA4 [26] of the same substance?
**A.** The LFQ intensity ratio Aska (shControl)/Aska (shSS18-SSX), norm to SMARCA4 was 1.54.

**Q.** And the LFQ intensity ratio Aska (shControl)/Aska (shSS18-SSX), norm to SMARCA4 [27]?
**A.** The LFQ intensity ratio Aska (shControl)/Aska (shSS18-SSX), norm to SMARCA4 was 1.26.
